The chains are these.
B1: TPR 5TU (parent)
chain: GGAUCUUCUCGAUCUAACAAAAAAGACAAAUCUGCCACAAAGCUUGAGAGCAUCUUCGGAUGCAGAGGCGGCAGCCUUCGGUGGCGCGAUAGCGCCAACGUUCUCAACUAUGACACGCAAAACGCGUGCUCCGUUGAAUGGAGUUUAUCAUG

The text below walks through data of the RNAGym collection of RNA variant scans (doi:10.1073/pnas.2313332121).

Fewer inactive variants are shown than the library holds.

The variants in this data set derive from B1. The data set is described as follows: polymerase ribozyme fitness, log enrichment relative to wild type (log ratio); higher = more active; in vitro selection for triplet polymerase activity. Put shortly:
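PCR was used to build mutant libraries for each subunit of a heterodimeric triplet polymerase ribozyme, which were then transcribed. A single in vitro selection round, in triplicate, used a frozen incubation at −7 °C and recovered extended constructs by gel excision, streptavidin beads and RT-PCR. Fitness is the logarithm of genotype enrichment relative to wild-type enrichment, averaged over replicates with inverse-variance weights. The logarithm is base 2, and after Illumina sequencing only genotypes with ≥10 input reads and ≥1 read per output were kept.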
In the case of A21G G81U C95A C96A A98U U145A, the “polymerase ribozyme fitness (log ratio)” value is -1.34.
As for A22C A39C U55A U102G C129U, the figure is no more than -4.2; as for A21C U53A A91U C95G U134A U139C G152U, no more than -4.2.
As for A21G A73G C85A C103U A122U, the figure is -1.86; as for A21U C36G U44C C54G G74U A89G A120C U134G, no more than -4.2; as for A21U C85U C131U U145G U151A, no more than -4.2.
As for A21U A24U G94U A97G A150C, the figure is no more than -4.2.
Take A21U U31C A73G G94U A113U: the “polymerase ribozyme fitness (log ratio)” value is -3.49.
As for A21U A119U G124U, the figure is -0.526; as for A22C A23G G62A A91G A98U C114A U146A, no more than -4.2.
As for A21U U44A C51U C57U G65A, the figure is no more than -4.2; as for A21U C27A U44G C87A A137U, no more than -4.2; as for A22C G92C, -1.73.
Under A21U G68C C69G C116U stands no more than -4.2.
A21U A23G: the “polymerase ribozyme fitness (log ratio)” value was -2.94.
For A21U A41G A60U C85U C103G C123A, the “polymerase ribozyme fitness (log ratio)” value is -3.69.
Under A21C U55A C96U stands -0.915.
As for A22C G46C G83C, the figure is -3.01; as for A21G G80A C99G A119U, -0.387.
As for A21U G48A U82G C95G, the figure is no more than -4.2; as for A21C G59A, -0.0146.
On to A21U U135A, for which the “polymerase ribozyme fitness (log ratio)” value was -1.24.
Under A21U G86A stands -0.555; under A22C U53A U56A A73G, -1.97; under A21G A41C G46A G65U, no more than -4.2.
As for A21G A52U C85U G94U A98U C116U, the figure is -1.64; as for A21U G34A C69A C132G, no more than -4.2.
Under A21U A29U U61A stands no more than -4.2; under A22C A23G C54U, no more than -4.2; under A21U C32A C51U A73G U134G, no more than -4.2.
In the case of A21G C35A A49G C96G, the “polymerase ribozyme fitness (log ratio)” value was no more than -4.2.
Under A22C A37U U61G C85G A91U U146A stands no more than -4.2.
Under A22C G34C U55G A91C G92U stands no more than -4.2.
For the variant A22C A28G C36A U55A C87A C118G, the “polymerase ribozyme fitness (log ratio)” value was no more than -4.2.
As for A21G A39U C75U U82A C87A A98G C118U C125U, the figure is no more than -4.2; as for A21C G86A, -0.32; as for A21G U82A C96A U101G A121U, 0.493.
As to A21G U55G G143C, the “polymerase ribozyme fitness (log ratio)” value is -1.59.
Under A21G A37U G59A A60C stands -3.22; under A21U A22G A60G C132G U144C, -4.13.
Under A22C C35A U55A C57U G86U A119U stands no more than -4.2.
As for A22C A24G C51G A52C U56A A121C, the figure is no more than -4.2; as for A22C A24G A26U A52G G80A C85G G94U C123U, no more than -4.2; as for A22C A41C A49C U53A G67U G117A C131A, no more than -4.2.
In the case of A21C U55G G83U, the “polymerase ribozyme fitness (log ratio)” value is -0.166.
As for A21U G42C U44A U53A U55A C87U, the figure is no more than -4.2.
Turning to A21C U53A U56A C69U A98U G117C C118G U134A, the “polymerase ribozyme fitness (log ratio)” value was no more than -4.2.
For A21U U33G C72A C95U A122U, the “polymerase ribozyme fitness (log ratio)” value was no more than -4.2.
Under A21U C51U C93G C105U A120G stands -3.58; under A22C U53A C57U G100A A119G A142C G152A, no more than -4.2.
In the case of A21G A40U, the “polymerase ribozyme fitness (log ratio)” value came to 0.957.
For the variant A21U A24C U56A C96U A138U, the “polymerase ribozyme fitness (log ratio)” value was no more than -4.2.
Under A22C A24G A52G G68U stands no more than -4.2; under A21U C105G A113G C116U, -4.07.
Under A21G U31A C51G G71U A89C A106G A110U A138G stands no more than -4.2; under A22C C38U G81U C87G U144A, no more than -4.2; under A22C A39C, -2.49.
As for A21U A60U C103G C108U A142G U148C, the figure is no more than -4.2.
In the case of A21U A26U A28U G67A G88A A122U, the “polymerase ribozyme fitness (log ratio)” value was no more than -4.2.
As for A21C U44A C75A C96A, the figure is -3.98; as for A21G G50C C93U C118U A138U U145A, no more than -4.2; as for A21G C27A, -3.89.
In the case of A22C A41U U53C C75U, the “polymerase ribozyme fitness (log ratio)” value was -2.58.
Under A22C A137G stands -2.58; under A21G A24G A47G G94C U102G C118U A121U, no more than -4.2.
Under A21C G84A C95A U104C stands -0.91.
Regarding A21G C54U G140A U145G, the “polymerase ribozyme fitness (log ratio)” value was no more than -4.2.
As for A21C G68C C69A C93G U144G, the figure is no more than -4.2; as for A21U U61G G80A U101A, -2.86; as for A21G C87U G140U, -3.6.
As for A21G C27A G46A A73G C87A, the figure is no more than -4.2.
As for A22C C27G C76U C96G G140U, the figure is no more than -4.2.
In the case of A21U U55A C85U U148A, the “polymerase ribozyme fitness (log ratio)” value was -4.07.
As for A21U G34U C51U G86A A89U U145G, the figure is no more than -4.2; as for A21U U56A C96U, -0.871; as for A21U G59U C105U C129A, -2.46.
Under A21G C38U stands 0.63; under A21G C27U A52C C93G A110U G152U, no more than -4.2.
Under A22C U55A A97G G143C stands -3.02; under A21C U53A G58A C95U U101G C116A, -0.162; under A22C C76A A89G C95G, -4.19.
As to A21G G143A, the “polymerase ribozyme fitness (log ratio)” value is -0.569.
As for A21G A24U C93G, the figure is -4.02.
